US20040120954A1, “Regulation of mt1-mmp activity” (priority 2000, published 2004)

Columns and labels:
[1] = biological target: T1, MT1-F (Homo sapiens, UniProt P50281); experiment: 125I-labeled TIMP-2 binding assay on transfected CHO-K1 cells
T1 construct: expressed in transfected cells
Protocol: FIG. 12: The efficacies of MT1PEX-F on the proteolytic activity and TIMP-2 binding ability of MT1-F expressed on a cell surface are shown. As is shown in FIG. 12 through FIG. 14, CHO-K1 cells were transfected with the expression vectors for MT1-F, MT1PEX-F or MT1Cat-F, or a vector alone (Mock). The cells were then treated with trypsin, and seeded on DQ™-gelatin coated cover slips for proteolytic activity tests (FIG. 13) and in 24-well plates for TIMP-2 binding assays (FIG. 12) and for proMMP-2 activation (FIG. 14). Results are all from the same transfection experiment. […]
Next, to determine if MT1PEX-F affects the catalytic activity of MT1-MMP on the cell surface or not, tests for gelatin degrading activity and binding capacity to TIMP-2 were conducted using cells transfected in the same incubator. […] Transfected cells on the DQ™ gelatin-coated cover slip as shown in FIG. 13 were incubated in a medium at 37° C. for 18 hrs, and the generated fluorescence was analyzed using confocal microscopy. […] MT1-MMP specific binding was calculated by subtracting the datum obtained in the presence of BB-94 (50 μM) from each datum derived from the corresponding experiments. […] DQ™ gelatin is a fluorescence-quenched gelatin, which fluoresces upon proteolytic cleavage. […]

[2] = biological target: T2, MT1-F/NGFR (Homo sapiens, UniProt P04629+P50281); experiment: Dimer formation of MT1-F/NGFR chimera on the cell surface (anti-phosphotyrosine PY20 Western blotting, co-transfected COS1 cells); type: cell-based; conditions: for competition in the dimer formation of MT1-F/NGFR (PY20 band intensity): COS1 cells co-transfected with MT1-F/NGFR and the construct (FIG. 23)
T2 construct: expressed in transfected cells; host or cells: COS1 cells (pSG5 vector)
Protocol: Cell lysate samples were subjected to separation on SDS-PAGE, followed by a transfer of the proteins in the gel to nitrocellulose membranes (Hybond-ECL, Amersham Pharmacia Biotech, Inc.). After blocking with a solution of 10% skim milk dissolved in TBS (20 mM Tris-HCl buffer, pH 7.5 containing 150 mM NaCl), the membrane was exposed to a monoclonal anti-FLAG M2 antibody (3 μg/ml) for detecting FLAG-tagged MT1-MMP and its mutants. In order to visualize the immunoreactive bands, the membrane was further exposed to an alkaline phosphatase-conjugated goat anti-mouse IgG antibody. For the purpose of detecting a phosphotyrosine residue in chimera proteins, a monoclonal anti-phosphotyrosine antibody, PY20 (1 μg/ml) was used.
Cell lysates were subjected to SDS/PAGE, followed by a transfer of the proteins to nitrocellulose membranes (Hybond-ECL, Amersham Pharmacia Biotech, Inc.). MT1-MMP, MT1Cat, MT1-MT4PEX and MT1-F/NGFR were detected with a polyclonal anti-CAT antibody (1:2000), while MT1-MMP, MT1PEX and MT1-F/NGFR with an anti-PEX antibody (222-1D8, 0.5 μg/ml). FLAG-tagged MT1-MMP and its mutants were detected with an anti-FLAG M2 antibody (3 μg/ml). Chimera proteins containing a phosphotyrosine residue were detected with a monoclonal mouse anti-phosphotyrosine antibody, PY20 (ICN Biochemicals, Inc., OH, USA; 1 μg/ml). Immunoreactive bands were visualized with an alkaline phosphatase-conjugated goat anti-mouse IgG or anti-rabbit IgG (Sigma).
NGFR forms a dimer through binding to its ligand. Subsequently, tyrosine residues in the cytoplasmic domain are trans-phosphorylated by its tyrosine kinase (Jing, S. et al., Neuron, 9: 1067-1079, 1992; Lemmon, M. A. et al., Trends Biochem. Sci., 19: 459-463, 1994).
By utilizing the above principle, a chimeric protein is first constructed consisting of the ectodomain of MT1-MMP and the transmembrane (TM) and cytoplasmic (CP) domains of NGFR (FIG. 8) in order to test for direct complex formation. When the ectodomain of this chimeric protein forms a homophilic complex in a similar manner, tyrosine residues in the cytoplasmic domain will be phosphorylated.
It is investigated whether co-expression of MT1PEX-F and MT1-F competes in the dimer formation of MT1-F/NGFR or not. For the test, the expression plasmids for MT1-F/NGFR and MT1PEX-F were co-transfected into COS1 cells.
Next, the expression plasmids for MT1-F/NGFR and FLAG-tagged MT1PEX (MT1PEX-F), MT1Cat (MT1Cat-F), or MT1-F were co-transfected to investigate if the dimer formation of the chimera could be disrupted or not.

TIMP-2 binding capacity as compared to the cells bearing MT1-F ([1]; CHO-K1 cells expressing the mutant (FIG. 12)) | decrease in TIMP-2 binding on the cell surface as compared with MT1-F alone ([1]; CHO-K1 cells co-transfected with MT1-F, 25 nM 125I-TIMP-2, 0° C., 1 hr, BB-94 (50 μM) background subtracted (FIG. 12)) | decrease of phosphotyrosine signal ([2]; COS1 cells co-expressing MT1-F/NGFR and Rac1DA (FIG. 24)) | inhibition of the phosphorylation of MT1-F/NGFR ([2]; COS1 cells co-transfected with MT1-F/NGFR, increasing levels of MT1PEX-F expression, PY20 band intensity (FIG. 10)) | Substance | competition in the dimer formation of MT1-F/NGFR (PY20 band intensity) [2] | phosphorylation of MT1-F/NGFR ([2]; COS1 cells co-transfected with MT1-F/NGFR and MT1PEX-F at indicated DNA ratio (FIG. 10))
equivalent TIMP-2 binding capacity |  |  |  | MT1Cat-F: PEX-deleted FLAG-tagged MT1-MMP (Δ Ile318-Gly535) | did not decrease the intensity of the band | 
 | 37% | 43% | ≥ 90% | MT1PEX-F: Catalytic domain-deleted FLAG-tagged MT1-MMP (Δ Tyr112-Pro312), expressed by transfection | effectively competed | inhibited depending on the expression level
